Experimental data as given in the supplement of paper PMC9170038.

Tested on: MS2 coat protein
Experiment: apparent KD of MS2 coat protein; designed switch direction (-1 OFF switch, 1 ON switch): 1; higher = weaker reporter binding
Outline: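 Each step of the titration lasted 0.8–1.5 h at the lowest concentration and 10–20 min at the highest. The protein, SNAP-549-labelled MS2 coat protein, went from 0.7 or 1.5 nM doubling to 3 µM over RNA switches transcribed on Illumina chips by stalled E. coli RNA polymerase. Normalised cluster fluorescence was curve-fitted, and the per-design median over clusters is given as apparent KD.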

[1] = input ligand: microRNA oligo, concentration not stated
[2] = Eterna round: R95, input ligand: FMN 200 uM
[3] = Eterna round: R95, input ligand: microRNA oligo, concentration not stated
[4] = Eterna round: R95, input ligand: none

Sequence	apparent KD of MS2 coat protein (input ligand: FMN 200 uM) [nM]	apparent KD of MS2 coat protein [1] [nM]	apparent KD of MS2 coat protein (input ligand: none) [nM]	apparent KD of MS2 coat protein [2] [nM]	apparent KD of MS2 coat protein [3] [nM]	apparent KD of MS2 coat protein [4] [nM]
GGAGCCAAGGCAGGAUAUUCAUUAUAAAUUACAUGAGGAUCACCCAUGUUGGCCAGAAGGCCAUGGGAGAAGGGCCAUGGCUCG [Xeonanis - 13 mod25] (Eterna round: R96, puzzle: Same State NG 2)	39.7	280	322	–	–	–
GGAGCCGGCACCGAGGAUAUUCAUAUUAAAACAUGAGGAUCACCCAUGUAGGCCAGAAGGCCUUGGGAGAAGGCGGAUCGGCUCG [Xeonanis] (Eterna round: R96, puzzle: Same State 2)	33.2	305	544	–	–	–
GGAGCCGGCACCGAGGAUAUUCAUAUUAAAACAUGAGGAUCACCCAUGUAGGUCAAAAGACCUUGGGAGAAGGCGGAUCGGCUCG [Xeonanis - 31] (puzzle: Same State 2)	–	–	–	32.1	802	481
GGAGCCGGCCUAGGAUAUUUCAUAAAAUUACAUGAGGAUCACCCAUGUAGGCCAGAAGGCCUUGGGAAGAAGGAGGUCGGCUCC [Loop Effect - U28,U29] (Eterna round: R96, puzzle: Same State NG 2)	12.9	17.5	28.2	–	–	–
GGAGCCGGUACUGAGGAUAUUCAUAUUAAAACAUGAGGAUCACCCAUGUAGGCCAGAAGGCCUUGGGAGAAGGCAGAUCGGCUCC [Biceusra] (Eterna round: R96, puzzle: Same State 2)	19	132	233	–	–	–
GGAGGAUUCGCAGGAUAUUCCUGAACACUGUAGGAAGAAGGGUGACGUAUCAGCACCAAGUGACAUGAGGAUCACCCAUGUUAA [Eternabot solution 24] (Eterna round: R96, puzzle: Same State NG 1)	137	93.7	114	–	–	–
GGAUGAUUAACAGGAUAUCAUUUGUAAAUUCGAUGAGAAGGGUUGAUUACUUACACGACGUGUUACAUGAGGAUCACCCAUGUU [SameState NG1 #6] (Eterna round: R96, puzzle: Same State NG 1)	372	385	548	–	–	–
GGCAUGCGGCGUACCGUAUGCUGGUAUGUACAUGAGGAUCACCCAUGUCAUGUACAGGCUUUUUGCUCGUCUUAUUG [JL-shm-2.40 JL mod] (puzzle: Sensor for hsa-mir-208a)	–	–	–	128	28.7	157
GGCCUGUAGACAGGAUAUGGGAAAGGAAGUGUACCAGAAGGGUCAAAGAUAUAGGUGGACAUGAGGAUCACCCAUGUAAUUAAC [PowerStrip SSNG 1.21] (Eterna round: R96, puzzle: Same State NG 1)	56.6	70.5	105	–	–	–
GGCCUGUGUCAAGGAUAUGCUACCGUUUCGGUAGCAGAAGGUGAUCACAUGAGGAUCACCCAUGUUUACGCGAACACGCGCGCC (Eterna round: R96, puzzle: Same State NG 1)	193	70.6	79.6	–	–	–
GGCUAUCGCGUUCGAUAGCUUAAGCAUGUACAUGAGGAUCACCCAUGUCAUGUACAAGCUUUUUGCUCGUAUCUUAU (puzzle: Sensor for hsa-mir-208a)	–	–	–	94.6	12.1	119
GGCUAUCGGCGUACCGAUAGCUGGUAUGUACAUGAGGAUCACCCAUGUCAUGUACAGGCUUGUUGCUCGUCUUAUUG [JL-shm-2.38 JL mod] (puzzle: Sensor for hsa-mir-208a)	–	–	–	144	33	165
GGGAGAGCCGCAGGAUAUGGUGAGGAUUACCCACUAGAAGGGUGGACAUGAGAAUCGAACAUGAGGAUCACCCAUGUUCUGAGG (Eterna round: R96, puzzle: Same State NG 1)	200	219	386	–	–	–
GGGAGAGGCGCAGGAUAUGGUGAGGAUCACCCACUAGAAGGGUGCACAUGAGAAUCGGACAUGAGGAUCACCCAUGUUUGGCGC (Eterna round: R96, puzzle: Same State NG 1)	393	121	565	–	–	–
GGGAGAGGCGCAGGAUAUGGUGAGGAUUACCCACUAGAAGGGUGCACAUGAGAAUCGAACAUGAGGAUCACCCAUGUUCUGAGC (Eterna round: R96, puzzle: Same State NG 1)	189	187	230	–	–	–
GGUAGGUUACUACCAAACAUGAGGAUCACCCAUGUAAAUGGGAAGGAUAUGGUACCUAUUUGGUACCAGAAGGUCUAAUUAAUU [JL Fiskers NG3ss - 2 mod 1] (Eterna round: R96, puzzle: Same State NG 3)	332	479	553	–	–	–
GGUAGGUUACUACCAAACAUGAGGAUCACCCAUGUAAGUGGGAAGGAUAUGGUACCUUUUAGGUACCAGAAGGUCCAUAAAAUU [JL Fiskers NG3ss - 2 mod 7] (Eterna round: R96, puzzle: Same State NG 3)	314	355	2090	–	–	–
GGUAGGUUACUACCAAACAUGAGGAUCACCCAUGUAAGUGGGAAGGAUAUGGUACCUUUUAGGUACCAGAAGGUCCAUAUAGUA [JL Fiskers NG3ss - 2 mod 10] (Eterna round: R96, puzzle: Same State NG 3)	254	783	1000	–	–	–
GGUAUUAACACAGGAUAUGCUUACGAAACGUAAGCAGAAGGGUGAACAUGAGGAUCACCCAUGUUUGUACCAGGGCGUGAGCCC [JL SSNG1 1.72] (Eterna round: R96, puzzle: Same State NG 1)	349	632	923	–	–	–
GGUCCAGCCUGAGCUGGACAAAAGCAUGUACAUGAGGAUCACCCAUGUUCAUGUACAAGCUUUUUGCUCGUCUUACC [salish99_208a_r3_090x] (puzzle: Sensor for hsa-mir-208a)	–	–	–	570	15.9	823
GGUCCAGCCUGAGCUGGACAAAAGCAUGUACAUGAGGAUCACCCAUGUUCAUGUACAAGCUUUUUGCUCGUCUUACG [salish99_208a_r3_086] (puzzle: Sensor for hsa-mir-208a)	–	–	–	571	19.2	844
GGUCCAGCCUGAGCUGGACAAAAGCAUGUACAUGAGGAUCACCCAUGUUCAUGUACAAGCUUUUUGCUCGUCUUAGC [salish99_208a_r3_071] (puzzle: Sensor for hsa-mir-208a)	–	–	–	534	12.7	468
GGUCGGACAUGAGGAUCACCCAUGUGGUGAGCGGAAACGCCAUAGGAUAUCUGUCCGAAAAGGUCAGAGAAGGGUGAACCGACC [Fiskers NG3ss - 68] (Eterna round: R96, puzzle: Same State NG 3)	184	311	135	–	–	–
GGUCGGACUCACAUGAGGAUCACCCAUGUUCCGGAAACGGGAUAGGAUAUCUGUCCGAAAAGGUCAGAGAAGGGUCUACCGACC [Fiskers NG3ss - 55] (Eterna round: R96, puzzle: Same State NG 3)	1050	236	519	–	–	–
GGUGCCAAAUAAGCCUACAUGAGGAUCACCCAUGUAUGUAGGCAGGAUAUCGUAUGCAAAGCAUACGAGAAGGGCCUAGGCACC [Mat - Same State NG 3 - JL Mod - D63] (Eterna round: R96, puzzle: Same State NG 3)	18.8	23.7	41.3	–	–	–
GGUGCCAAUAAAGCCUACAUGAGGAUCACCCAUGUAUGUAGGUAGGAUAUCGUUUGCUUUGCAAACGAGAAGGGCCUAGGCACC [JL SSNG3 1.20] (Eterna round: R96, puzzle: Same State NG 3)	22.5	40.2	48.3	–	–	–
GGUGCGAAUAAAGCCUACAUGAGGAUCACCCAUGUAUGUAGGCAGGAUAUCGUUUGCUUUGCAAACGAGAAGGGCUGUCGCACC [JL SSNG3 1.16] (Eterna round: R96, puzzle: Same State NG 3)	21.9	49	70.7	–	–	–
GGUGGGUUACUACCAACACAUGAGGAUCACCCAUGUUUUGGGAAGGAUAUGGUACCUAUUUGGUACCAGAAGGUCCGGUUGGUG [salish99_SSNG3_r04_704] (Eterna round: R96, puzzle: Same State NG 3)	47.8	100	100	–	–	–
GGUGGGUUACUACCCACACAUGAGGAUCACCCAUGUAUUGGGAAGGAUAUGGUGCCUGUGUGGUACCAGAAGGUCGUGAAGGUG [SS-NG3-LRO19] (Eterna round: R96, puzzle: Same State NG 3)	580	312	3470	–	–	–
GGUGGGUUGCUACCAACACAUGAGGAUCACCCAUGUUUUGGGAAGGAUAUGGUACCUAUUUGGUACCAGAAGGUCCCGUUGGUG [salish99_SSNG3_r04_706] (Eterna round: R96, puzzle: Same State NG 3)	37.6	40.4	63.6	–	–	–
